Data on nine molecules can be found in US20250179589A1, “SYNTHETIC LETHALITY AND THE TREATMENT OF CANCER” (PACYLEX PHARMACEUTICALS INC., priority 2012, published 2025).

The target in series [1] is myristoylatable decapeptide corresponding to the N-terminal sequence of ct-Bid. In words: cell-based or functional assay.
For the next series, the system named is Jurkat T cells. Nature of the series: Effect of HMA on the induction of apoptosis, immunoblot. Type of series: cell-based, human. The method, then:
HMA was saponified and conjugated to bovine serum albumin (BSA) prior to addition to cells to facilitate its cellular uptake as described previously (Yap et al., 2010). Briefly, HMA was incubated with a 20% molar excess of potassium hydroxide (KOH) at 65° C. for 15 min. Subsequently, a 20× solution was made by dissolving the KOH saponified HMA in serum-free RPMI media containing 20% fatty acid-free BSA at 37° C., followed by an additional 15 min incubation at 37° C. Since sodium myristate was used as a control, it was also incubated in serum-free RPMI media containing 20% fatty acid-free BSA at 37° C. prior to addition to cells. Subsequently, Jurkat T cells (1×10^7 cells) were incubated with either 1 mM HMA or 1 mM sodium myristate conjugated to fatty-acid free BSA (final concentration in cell culture 1%) for 1 h at 37° C. in RPMI media (without FBS, supplements or antibiotics). After incubation, apoptosis was induced using anti-Fas (150 ng/mL) or STS (2.5 μM) with cycloheximide (5 μg/mL) or vehicle alone (DMSO). Samples were collected every 2 h for an 8 h period, washed with cold PBS and lysed with 0.3 mL of 1% sodium dodecyl sulfate (SDS)-radio-immuno-precipitation assay (RIPA) buffer and subjected to 2 rounds of sonication for 15 seconds at an output of 5.5-6.5 on a Branson Sonifier and placed on ice for 2 min in between each cycle. […]
A general note: In western blotting, separated proteins are transferred to a membrane and probed.

The target of the series “His-NMT2 (recombinant …)” is T1, His-NMT2 (recombinant hexahistidine-tagged full-length human N-myristoyltransferase 2), O60551.
T1 chain: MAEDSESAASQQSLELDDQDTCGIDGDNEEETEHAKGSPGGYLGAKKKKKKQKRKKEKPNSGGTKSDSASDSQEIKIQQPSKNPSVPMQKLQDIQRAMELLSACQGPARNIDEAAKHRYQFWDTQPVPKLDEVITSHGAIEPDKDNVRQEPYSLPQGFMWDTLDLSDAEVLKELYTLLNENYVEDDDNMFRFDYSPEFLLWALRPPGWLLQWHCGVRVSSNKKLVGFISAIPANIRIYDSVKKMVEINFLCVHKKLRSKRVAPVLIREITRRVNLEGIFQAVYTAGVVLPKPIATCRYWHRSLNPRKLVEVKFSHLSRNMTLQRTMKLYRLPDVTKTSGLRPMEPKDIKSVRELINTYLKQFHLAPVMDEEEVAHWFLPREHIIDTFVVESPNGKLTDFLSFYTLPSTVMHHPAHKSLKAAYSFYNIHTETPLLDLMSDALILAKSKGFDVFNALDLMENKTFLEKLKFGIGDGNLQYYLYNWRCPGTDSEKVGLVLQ

The series “His-NMT1 (recombinant …)” deals with T2, His-NMT1 (recombinant hexahistidine-tagged full-length human N-myristoyltransferase 1), P30419.
T2 chain: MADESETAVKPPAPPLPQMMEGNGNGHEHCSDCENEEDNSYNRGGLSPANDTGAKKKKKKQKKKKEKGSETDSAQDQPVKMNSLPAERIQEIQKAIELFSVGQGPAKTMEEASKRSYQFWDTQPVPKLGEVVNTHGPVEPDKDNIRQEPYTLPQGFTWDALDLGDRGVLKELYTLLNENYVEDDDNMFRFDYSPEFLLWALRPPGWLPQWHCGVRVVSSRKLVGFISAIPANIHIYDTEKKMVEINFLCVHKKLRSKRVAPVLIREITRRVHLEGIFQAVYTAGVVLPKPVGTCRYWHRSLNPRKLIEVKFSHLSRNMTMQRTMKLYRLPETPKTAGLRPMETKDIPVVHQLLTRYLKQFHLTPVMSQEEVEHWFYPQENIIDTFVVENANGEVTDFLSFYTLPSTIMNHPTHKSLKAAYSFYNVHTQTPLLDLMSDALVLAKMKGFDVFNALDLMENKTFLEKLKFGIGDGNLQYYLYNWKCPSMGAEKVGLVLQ

Series [2] concerns the target T3, myristoylatable decapeptide corresponding to the N-terminal sequence of ct-Bid.
T3 chain: GNRSSHSRLG

The molecule “V5-NMT1 (N-terminally V5-tagged NMT1) (from UniProt P30419 1-496) (enzyme)” yielded an NMT activity in lysates of transfected COS-7 cells relative to cells expressing V5-NMT2 (peptide myristoylation assay) in series [1] of 5 fold.

Consider `CCCCCCCCCCCCC(O)C(=O)O` (stereo not shown) [HMA, 2-hydroxymyristic acid], for which the “time by which cleavage of PARP-1 occurred sooner than with 1 mM sodium myristate” value in the series with Jurkat T cells (1 mM HMA and anti-Fas) came to 2 h. Further, the “PARP-1 and PAK2 cleavage vs STS and 1 mM sodium myristate” value in the series with Jurkat T cells (HMA/STS, 2 h post induction) is “more PARP-1 and PAK2 cleavage”.

B1: recombinant human active caspase-3 (protein)
chain: SGISLDNSYKMDYPEMGLCIIINNKNFHKSTGMTSRSGTDVDAANLRETFRNLKYEVRNKNDLTREEIVELMRDVSKEDHSKRSSFVCVLLSHGEEGIIFGTNGPVDLKKITNFFRGDRCRSLTGKPKLFIIQACRGTELDCGIETDSGVDDDMACHKIPVEADFLYAYSTAPGYYSWRNSKDGSWFIQSLCAMLKQYADKLEFMHILTRVNRKVATEFESFSFDATFHAKKQIPCIVSMLTKELYFYH
In the case of B1, the “in vitro NMT cleavage assay (Coomassie stained gel)” value with His-NMT2 (recombinant …) is “Reconstitution of NMT1 cleavage by caspases-8 and -3, and, NMT2 cleavage by caspase-3 in vitro”; with His-NMT1 (recombinant …) it was “Reconstitution of NMT1 cleavage by caspases-8 and -3, and, NMT2 cleavage by caspase-3 in vitro”.

B2: His-NMT1 (recombinant hexahistidine-tagged full-length human N-myristoyltransferase 1) (protein)
chain: T2 chain
For B2, in series [2], the “NMT activity (filter-based peptide myristoylation assay)” value was “both full-length and caspase cleaved truncated NMT1 and NMT2 were catalytically active when compared to the control”.

B3: His-73NMT1 (His-tagged caspase-cleaved, truncated human NMT1) (protein)
chain: SAQDQPVKMNSLPAERIQEIQKAIELFSVGQGPAKTMEEASKRSYQFWDTQPVPKLGEVVNTHGPVEPDKDNIRQEPYTLPQGFTWDALDLGDRGVLKELYTLLNENYVEDDDNMFRFDYSPEFLLWALRPPGWLPQWHCGVRVVSSRKLVGFISAIPANIHIYDTEKKMVEINFLCVHKKLRSKRVAPVLIREITRRVHLEGIFQAVYTAGVVLPKPVGTCRYWHRSLNPRKLIEVKFSHLSRNMTMQRTMKLYRLPETPKTAGLRPMETKDIPVVHQLLTRYLKQFHLTPVMSQEEVEHWFYPQENIIDTFVVENANGEVTDFLSFYTLPSTIMNHPTHKSLKAAYSFYNVHTQTPLLDLMSDALVLAKMKGFDVFNALDLMENKTFLEKLKFGIGDGNLQYYLYNWKCPSMGAEKVGLVLQ
B3: in series [2], the “NMT activity (filter-based peptide myristoylation assay)” value was “both full-length and caspase cleaved truncated NMT1 and NMT2 were catalytically active when compared to the control”.

B4: recombinant human active caspase-8 (protein)
chain: SESQTLDKVYQMKSKPRGYCLIINNHNFAKAREKVPKLHSIRDRNGTHLDAGALTTTFEELHFEIKPHDDCTVEQIYEILKIYQLMDHSNMDCFICCILSHGDKGIIYGTDGQEAPIYELTSQFTGLKCPSLAGKPKVFFIQACQGDNYQKGIPVETDSEEQPYLEMDLSSPQTRYIPDEADFLLGMATVNNCVSYRNPAEGTWYIQSLCQSLRERCPRGDDILTILTEVNYEVSNKDDKKNMGKQMPQPTFTLRKKLVFPSD
On to B4, for which the “in vitro NMT cleavage assay (Coomassie stained gel)” value in the series with His-NMT1 (recombinant …) is “Reconstitution of NMT1 cleavage by caspases-8 and -3, and, NMT2 cleavage by caspase-3 in vitro”.

B5: His-NMT2 (recombinant hexahistidine-tagged full-length human N-myristoyltransferase 2) (protein)
chain: T1 chain
Consider B5, for which, in series [2], the “NMT activity (filter-based peptide myristoylation assay)” value is “both full-length and caspase cleaved truncated NMT1 and NMT2 were catalytically active when compared to the control”.

B6: His-68NMT2 (His-tagged caspase-cleaved, truncated human NMT2) (protein)
chain: SASDSQEIKIQQPSKNPSVPMQKLQDIQRAMELLSACQGPARNIDEAAKHRYQFWDTQPVPKLDEVITSHGAIEPDKDNVRQEPYSLPQGFMWDTLDLSDAEVLKELYTLLNENYVEDDDNMFRFDYSPEFLLWALRPPGWLLQWHCGVRVSSNKKLVGFISAIPANIRIYDSVKKMVEINFLCVHKKLRSKRVAPVLIREITRRVNLEGIFQAVYTAGVVLPKPIATCRYWHRSLNPRKLVEVKFSHLSRNMTLQRTMKLYRLPDVTKTSGLRPMEPKDIKSVRELINTYLKQFHLAPVMDEEEVAHWFLPREHIIDTFVVESPNGKLTDFLSFYTLPSTVMHHPAHKSLKAAYSFYNIHTETPLLDLMSDALILAKSKGFDVFNALDLMENKTFLEKLKFGIGDGNLQYYLYNWRCPGTDSEKVGLVLQ
For the molecule B6, in series [2], the “NMT activity (filter-based peptide myristoylation assay)” value was “both full-length and caspase cleaved truncated NMT1 and NMT2 were catalytically active when compared to the control”; the “NMT activity relative to full-length NMT2 (filter-based peptide myristoylation assay)” value is on record as “˜4-fold (His-68NMT2) more activity when compared to full-length NMT2”.

B7: His-26NMT2 (His-tagged caspase-cleaved, truncated human NMT2) (protein)
chain: GDNEEETEHAKGSPGGYLGAKKKKKKQKRKKEKPNSGGTKSDSASDSQEIKIQQPSKNPSVPMQKLQDIQRAMELLSACQGPARNIDEAAKHRYQFWDTQPVPKLDEVITSHGAIEPDKDNVRQEPYSLPQGFMWDTLDLSDAEVLKELYTLLNENYVEDDDNMFRFDYSPEFLLWALRPPGWLLQWHCGVRVSSNKKLVGFISAIPANIRIYDSVKKMVEINFLCVHKKLRSKRVAPVLIREITRRVNLEGIFQAVYTAGVVLPKPIATCRYWHRSLNPRKLVEVKFSHLSRNMTLQRTMKLYRLPDVTKTSGLRPMEPKDIKSVRELINTYLKQFHLAPVMDEEEVAHWFLPREHIIDTFVVESPNGKLTDFLSFYTLPSTVMHHPAHKSLKAAYSFYNIHTETPLLDLMSDALILAKSKGFDVFNALDLMENKTFLEKLKFGIGDGNLQYYLYNWRCPGTDSEKVGLVLQ
For B7, in series [2], the “NMT activity (filter-based peptide myristoylation assay)” value is “both full-length and caspase cleaved truncated NMT1 and NMT2 were catalytically active when compared to the control”; the “NMT activity relative to full-length NMT2 (filter-based peptide myristoylation assay)” value is on record as “˜3-fold (His-26NMT2) ... more activity when compared to full-length NMT2”.
